Results on one variant are retold here after IntAct's records for PubMed 12097473.

B1: Kinesin-like protein KIF1B (Homo sapiens), O60333-3 (parent)
chain: MSGASVKVAVRVRPFNSRETSKESKCIIQMQGNSTSIINPKNPKEAPKSFSFDYSYWSHTSPEDPCFASQNRVYNDIGKEMLLHAFEGYNVCIFAYGQTGAGKSYTMMGKQEESQAGIIPQLCEELFEKINDNCNEEMSYSVEVSYMEIYCERVRDLLNPKNKGNLRVREHPLLGPYVEDLSKLAVTSYTDIADLMDAGNKARTVAATNMNETSSRSHAVFTIVFTQKKHDNETNLSTEKVSKISLVDLAGSERADSTGAKGTRLKEGANINKSLTTLGKVISALAEVSKKKKKTDFIPYRDSVLTWLLRENLGGNSRTAMVAALSPADINYDETLSTLRYADRAKQIKCNAVINEDPNAKLVRELKEEVTRLKDLLRAQGLGDIIDTSMGSLTSSPSSCSLSSQVGLTSVTSIQERIMSTPGGEEAIERLKESEKIIAELNETWEEKLRKTEAIRMEREALLAEMGVAIREDGGTLGVFSPKKTPHLVNLNEDPLMSECLLYYIKDGITRVGQADAERRQDIVLSGAHIKEEHCIFRSERSNSGEVIVTLEPCERSETYVNGKRVSQPVQLRSGNRIIMGKNHVFRFNHPEQARAEREKTPSAETPSEPVDWTFAQRELLEKQGIDMKQEMEKRLQEMEILYKKEKEEADLLLEQQRLDADSDSGDDSDKRSCEESWKLITSLREKLPPSKLQTIVKKCGLPSSGKKREPIKMYQIPQRRRLSKDSKWVTISDLKIQAVKEICYEVALNDFRHSRQEIEALAIVKMKELCAMYGKKDPNERDSWRAVARDVWDTVGVGDEKIEDVMATGKGSTDVDDLKVHIDKLEDILQEVKKQNNMKDEEIKVLRNKMLKMEKVLPLIGSQEQKSPGSHKAKEPVGAGVSSTSENNVSKGDNGELAKEERVSQLMNGDPAFRRGRLRWMRQEQIRFKNLQQQEITKQLRRQNVPHRFIPPENRKPRFPFKSNPKHRNSWSPGTHIIITEDEVIELRIPKDDEARKGNKEESQEKGGKGAFKDPQFPWGSQGMRSQDHIQVSKQHINNQQQPPQLRWRSNSLNNGQPKSTRCQASASAESLNSHSGHPTADVQTFQAKRHIHQHRQSYCNYNTGGQLEGNAATSYQKQTDKPSHCSQFVTPPRMRRQFSAPNLKAGRETTV

The first assay covers variants of B1. The note with it: with dlg1_rat Dlg1, Q62696.
On to V1153A, for which the “effect of a mutation on the interaction” value is “decreasing interaction”.

The variants in another assay derive from B1. The note with it: with magi2_rat Magi2, O88382.
Sequence of magi2_rat Magi2, O88382 (O88382 whole entry): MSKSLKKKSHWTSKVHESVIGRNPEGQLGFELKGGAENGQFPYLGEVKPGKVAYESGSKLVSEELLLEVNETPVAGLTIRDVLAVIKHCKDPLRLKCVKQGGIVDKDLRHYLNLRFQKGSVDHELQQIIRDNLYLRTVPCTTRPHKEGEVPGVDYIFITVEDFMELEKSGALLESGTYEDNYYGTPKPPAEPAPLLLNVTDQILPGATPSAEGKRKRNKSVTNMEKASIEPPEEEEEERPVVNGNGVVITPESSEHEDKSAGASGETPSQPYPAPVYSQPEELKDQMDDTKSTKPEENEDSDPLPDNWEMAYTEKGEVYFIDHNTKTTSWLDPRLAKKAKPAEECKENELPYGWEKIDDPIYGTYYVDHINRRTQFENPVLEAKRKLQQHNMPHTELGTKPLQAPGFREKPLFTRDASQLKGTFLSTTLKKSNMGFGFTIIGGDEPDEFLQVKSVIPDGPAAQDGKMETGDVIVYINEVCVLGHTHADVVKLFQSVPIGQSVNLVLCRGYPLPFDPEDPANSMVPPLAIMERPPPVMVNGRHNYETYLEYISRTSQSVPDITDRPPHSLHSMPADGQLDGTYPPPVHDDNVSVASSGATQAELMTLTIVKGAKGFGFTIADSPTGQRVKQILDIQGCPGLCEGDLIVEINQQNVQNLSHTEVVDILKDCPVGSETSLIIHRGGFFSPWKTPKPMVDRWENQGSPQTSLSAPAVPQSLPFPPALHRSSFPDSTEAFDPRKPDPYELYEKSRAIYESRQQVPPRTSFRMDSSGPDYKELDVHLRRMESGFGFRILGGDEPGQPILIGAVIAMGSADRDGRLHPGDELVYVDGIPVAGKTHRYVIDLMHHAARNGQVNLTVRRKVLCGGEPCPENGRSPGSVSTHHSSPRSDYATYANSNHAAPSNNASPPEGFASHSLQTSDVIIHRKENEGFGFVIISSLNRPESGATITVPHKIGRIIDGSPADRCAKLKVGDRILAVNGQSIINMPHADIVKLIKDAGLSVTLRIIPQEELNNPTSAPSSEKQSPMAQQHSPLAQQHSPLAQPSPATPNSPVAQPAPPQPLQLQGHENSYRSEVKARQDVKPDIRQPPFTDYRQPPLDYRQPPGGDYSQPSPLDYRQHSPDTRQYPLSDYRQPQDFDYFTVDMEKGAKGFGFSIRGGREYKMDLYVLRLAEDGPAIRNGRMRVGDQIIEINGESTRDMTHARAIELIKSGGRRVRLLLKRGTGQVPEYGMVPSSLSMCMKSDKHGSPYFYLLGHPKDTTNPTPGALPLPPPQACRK
V1153A: the “effect of a mutation on the interaction” value is “disrupting interaction”.

In the next assay the parent is B1. Particulars: with dlg1_human DLG1, Q12959.
Sequence of dlg1_human DLG1, Q12959 (Q12959 whole entry, looked up): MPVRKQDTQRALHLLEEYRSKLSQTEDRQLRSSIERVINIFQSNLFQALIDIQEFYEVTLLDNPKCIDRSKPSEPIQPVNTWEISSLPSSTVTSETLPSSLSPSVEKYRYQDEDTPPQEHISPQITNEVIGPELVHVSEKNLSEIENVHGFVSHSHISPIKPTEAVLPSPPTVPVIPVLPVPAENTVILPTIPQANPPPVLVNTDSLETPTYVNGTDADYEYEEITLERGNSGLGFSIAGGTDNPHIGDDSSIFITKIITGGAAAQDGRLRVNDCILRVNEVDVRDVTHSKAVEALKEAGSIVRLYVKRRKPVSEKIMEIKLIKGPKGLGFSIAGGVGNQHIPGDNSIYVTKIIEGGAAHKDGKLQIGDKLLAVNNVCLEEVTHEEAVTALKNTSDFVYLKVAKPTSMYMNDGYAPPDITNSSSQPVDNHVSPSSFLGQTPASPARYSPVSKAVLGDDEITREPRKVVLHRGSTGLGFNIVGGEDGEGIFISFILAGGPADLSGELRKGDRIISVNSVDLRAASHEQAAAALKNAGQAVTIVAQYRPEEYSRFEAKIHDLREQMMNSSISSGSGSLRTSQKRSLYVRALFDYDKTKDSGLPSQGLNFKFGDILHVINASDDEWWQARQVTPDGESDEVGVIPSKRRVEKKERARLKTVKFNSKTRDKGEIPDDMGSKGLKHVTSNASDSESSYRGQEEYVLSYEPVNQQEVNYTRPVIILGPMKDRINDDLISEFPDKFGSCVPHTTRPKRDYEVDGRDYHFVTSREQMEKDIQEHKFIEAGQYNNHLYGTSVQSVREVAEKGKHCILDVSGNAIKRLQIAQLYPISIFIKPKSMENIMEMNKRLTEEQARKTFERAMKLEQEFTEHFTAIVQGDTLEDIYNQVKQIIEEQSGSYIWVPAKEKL
As for V1153A, the “effect of a mutation on the interaction” value was “decreasing interaction”.

The next assay covers variants of B1. The note with it: with dlg2_rat Dlg2, Q63622.
Sequence of dlg2_rat Dlg2, Q63622 (Q63622 whole entry, looked up): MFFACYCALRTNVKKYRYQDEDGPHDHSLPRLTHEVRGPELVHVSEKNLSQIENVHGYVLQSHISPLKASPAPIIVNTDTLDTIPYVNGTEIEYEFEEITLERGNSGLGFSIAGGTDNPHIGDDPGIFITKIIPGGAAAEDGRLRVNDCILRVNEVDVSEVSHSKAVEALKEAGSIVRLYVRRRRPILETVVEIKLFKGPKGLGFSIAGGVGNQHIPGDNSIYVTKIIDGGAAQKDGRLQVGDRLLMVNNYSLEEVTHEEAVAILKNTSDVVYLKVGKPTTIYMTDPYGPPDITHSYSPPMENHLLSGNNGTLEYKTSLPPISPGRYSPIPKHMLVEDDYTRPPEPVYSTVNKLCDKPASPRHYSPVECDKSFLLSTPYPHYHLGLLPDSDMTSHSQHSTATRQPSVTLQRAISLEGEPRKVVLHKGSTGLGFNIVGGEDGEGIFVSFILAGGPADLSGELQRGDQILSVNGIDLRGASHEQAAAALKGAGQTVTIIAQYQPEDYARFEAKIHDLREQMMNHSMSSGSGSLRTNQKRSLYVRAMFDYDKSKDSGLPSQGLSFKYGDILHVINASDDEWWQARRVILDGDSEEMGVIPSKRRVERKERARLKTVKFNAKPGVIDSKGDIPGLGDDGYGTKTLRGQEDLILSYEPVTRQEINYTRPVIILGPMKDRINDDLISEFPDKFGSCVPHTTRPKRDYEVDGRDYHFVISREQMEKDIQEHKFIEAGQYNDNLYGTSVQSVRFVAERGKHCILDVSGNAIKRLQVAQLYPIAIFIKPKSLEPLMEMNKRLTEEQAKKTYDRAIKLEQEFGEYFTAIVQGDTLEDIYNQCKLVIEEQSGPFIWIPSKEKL
Regarding V1153A, the “effect of a mutation on the interaction” value is listed as “disrupting interaction”.

In the next assay the parent is B1. The note with it: with magi1_human MAGI1, Q96QZ7.
Sequence of magi1_human MAGI1, Q96QZ7 (Q96QZ7 whole entry): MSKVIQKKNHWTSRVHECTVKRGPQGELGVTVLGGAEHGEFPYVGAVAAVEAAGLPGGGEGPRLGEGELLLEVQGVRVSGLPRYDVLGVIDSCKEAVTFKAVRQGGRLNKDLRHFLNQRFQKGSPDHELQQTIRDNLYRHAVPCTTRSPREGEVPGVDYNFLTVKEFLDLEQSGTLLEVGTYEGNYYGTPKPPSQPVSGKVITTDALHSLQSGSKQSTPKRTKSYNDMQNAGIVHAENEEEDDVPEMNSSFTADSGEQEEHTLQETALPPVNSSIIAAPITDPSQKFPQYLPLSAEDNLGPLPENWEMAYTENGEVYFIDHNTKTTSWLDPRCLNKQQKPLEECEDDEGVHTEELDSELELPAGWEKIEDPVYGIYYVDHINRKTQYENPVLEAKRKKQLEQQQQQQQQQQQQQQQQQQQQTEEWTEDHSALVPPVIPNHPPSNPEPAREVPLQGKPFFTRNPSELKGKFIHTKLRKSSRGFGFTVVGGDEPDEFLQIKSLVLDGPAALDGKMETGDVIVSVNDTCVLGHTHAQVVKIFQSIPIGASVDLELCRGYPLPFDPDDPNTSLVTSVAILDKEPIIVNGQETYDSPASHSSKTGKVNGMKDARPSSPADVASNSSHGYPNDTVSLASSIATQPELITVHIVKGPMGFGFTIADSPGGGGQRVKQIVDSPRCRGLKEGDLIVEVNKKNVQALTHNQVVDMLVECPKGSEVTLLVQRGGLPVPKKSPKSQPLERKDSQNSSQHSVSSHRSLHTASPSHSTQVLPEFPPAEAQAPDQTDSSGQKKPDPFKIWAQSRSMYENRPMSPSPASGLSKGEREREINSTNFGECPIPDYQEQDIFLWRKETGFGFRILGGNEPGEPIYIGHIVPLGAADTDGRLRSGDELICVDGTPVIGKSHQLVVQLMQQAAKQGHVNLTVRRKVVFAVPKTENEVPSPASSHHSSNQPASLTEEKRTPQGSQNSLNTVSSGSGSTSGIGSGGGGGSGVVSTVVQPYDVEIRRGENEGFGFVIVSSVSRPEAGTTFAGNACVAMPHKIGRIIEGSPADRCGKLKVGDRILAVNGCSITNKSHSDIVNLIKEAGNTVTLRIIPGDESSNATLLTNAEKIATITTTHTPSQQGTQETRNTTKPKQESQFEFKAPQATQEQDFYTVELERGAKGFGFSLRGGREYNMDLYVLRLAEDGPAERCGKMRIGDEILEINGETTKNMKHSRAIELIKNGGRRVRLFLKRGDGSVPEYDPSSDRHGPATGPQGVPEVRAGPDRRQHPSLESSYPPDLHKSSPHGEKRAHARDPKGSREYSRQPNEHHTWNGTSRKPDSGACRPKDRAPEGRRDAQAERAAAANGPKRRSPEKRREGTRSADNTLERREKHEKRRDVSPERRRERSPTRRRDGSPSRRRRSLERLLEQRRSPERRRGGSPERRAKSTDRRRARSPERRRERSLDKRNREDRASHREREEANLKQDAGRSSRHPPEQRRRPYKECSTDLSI
With V1153A, the “effect of a mutation on the interaction” value is “disrupting interaction”.
